This passage reports fold induction of PLA spots per cell by androgen (against cells without R1881) results from PMC4224142.

In the test the target is JunD, endogenous in LNCaP cells (human (endogenous in LNCaP)) (UniProt P17535). As to the kind of experiment: proximity ligation.
Chain of UniProt P17535 (P17535 whole entry): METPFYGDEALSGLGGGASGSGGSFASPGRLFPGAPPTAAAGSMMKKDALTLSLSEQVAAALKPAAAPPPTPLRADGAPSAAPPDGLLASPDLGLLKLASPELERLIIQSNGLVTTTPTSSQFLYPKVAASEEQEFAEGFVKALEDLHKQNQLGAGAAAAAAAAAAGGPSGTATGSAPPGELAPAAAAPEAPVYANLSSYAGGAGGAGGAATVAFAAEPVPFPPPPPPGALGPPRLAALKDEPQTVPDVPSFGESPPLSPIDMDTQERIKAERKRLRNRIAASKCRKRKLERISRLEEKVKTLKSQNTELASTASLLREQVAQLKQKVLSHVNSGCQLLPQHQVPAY

Substance “Androgen receptor (AR), endogenous in LNCaP cells (from UniProt P10275 1-920)” yielded a fold induction of PLA spots per cell by androgen (against cells without R1881) of 3 fold.
